{"source": "patent CN112741804A", "about": "(SHANGHAI JUNSHI BIOSCIENCES CO LTD; JUNMENG BIOSCIENCES CO …, dated 2021)", "binders": {"B1": {"name": "JS003 (humanized anti-PD-L1 antibody, clone 30) (antibody, human IgG4 S228P, kappa, V domains shown)", "VH": "QGQLQESGPSLVKPSQTLSLTCTVSGDSITRGYWNWIRKHPGKGLEYIGYISYTGSTYSNLSLKSRVTISRDTSKNQYYLKLSSVTAADTAVYYCATSTGWLDPVDYWGQGTLVTVSS", "VL": "DIVMTQSPDSLAVSLGERATINCKASQNVDTSVAWFQQKPGQPPKALIYSASFRYSGVPDRFSGSGSGTDFTLTISSLQAEDVAVYFCQQYYGYPFTFGQGTKLEIKR", "notes": "Full humanized antibody; Tested from formulation no; 30; also called 人源化抗体30; 抗体30"}, "B2": {"name": "humanized anti-PD-L1 antibody 38 (clone 38) (antibody, V domains shown)", "VH": "QGQLQESGPSLVKPSQTLSLTCTVSGDSITRGYWNWIRKPPGKGLEYIGYISYTGSTYSNLSLKSRVTISRDTSKNQYYLKLSSVTAADTAVYYCATSTGWLDPVDYWGQGTLVTVSS", "VL": "DIQMTQSPSSLSASVGDRVTITCRASQNVDTSVAWFQQKPGKAPKALIYSASFRYSGVPSRFSGSGSGTDFTLTISSLQPEDFATYFCQQYYGYPFTFGQGTKLEIK"}}, "target": "T1, human PD-L1 (programmed death-ligand 1), soluble protein (human, UniProt Q9NZQ7 19-238, limits assumed)", "T1 construct": "also called 人PD-L1; CD274", "T1 sequence (Q9NZQ7 19-238 limits assumed)": "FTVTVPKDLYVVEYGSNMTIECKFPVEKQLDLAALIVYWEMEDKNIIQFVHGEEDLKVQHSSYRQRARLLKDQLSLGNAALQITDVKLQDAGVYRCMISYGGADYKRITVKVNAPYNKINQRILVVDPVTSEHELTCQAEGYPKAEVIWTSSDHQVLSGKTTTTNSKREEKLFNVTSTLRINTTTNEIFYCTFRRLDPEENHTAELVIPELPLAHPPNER", "assay": "ELISA, PD-L1 coated on plate, HRP anti-human IgG detection", "data": [{"binder": "B1", "values": [{"measurement": "EC50", "value": 0.558, "unit": "ng/mL"}]}, {"binder": "B2", "values": [{"measurement": "EC50", "value": 0.837, "unit": "ng/mL"}]}]}
